Source: article PMC6930364

Biological target: L-DOPA dioxygenase from Streptomyces sclerotialus (SsDDO) (Streptomyces sclerotialus)
Experiment: crystal structure

stoichiometry N: 2
Substance: L-DOPA dioxygenase from Streptomyces sclerotialus (SsDDO) (enzyme)
